The text below walks through data of patent CN101407544A.

The target in test [1] is T1, 重组人GP73蛋白 His-GP73 (recombinant human Golgi protein 73 fragment with His tag, expressed in E. coli from pET-28-a(+)) (human) (UniProt Q8NBJ4).
T1 sequence (looked up): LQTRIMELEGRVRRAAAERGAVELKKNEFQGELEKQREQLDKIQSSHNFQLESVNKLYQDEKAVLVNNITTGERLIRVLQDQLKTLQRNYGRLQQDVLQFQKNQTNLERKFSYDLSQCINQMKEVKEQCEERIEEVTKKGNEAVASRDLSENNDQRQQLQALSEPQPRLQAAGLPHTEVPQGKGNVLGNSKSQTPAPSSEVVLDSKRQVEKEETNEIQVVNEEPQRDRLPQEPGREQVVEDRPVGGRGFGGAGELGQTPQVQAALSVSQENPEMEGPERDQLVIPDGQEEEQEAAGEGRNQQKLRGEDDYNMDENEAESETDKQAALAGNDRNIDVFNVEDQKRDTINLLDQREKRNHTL
Kind of test: double antibody sandwich ELISA: 6A2 (1 μg/ml) capture, His-GP73 standard, rabbit anti-GP73 serum (1:1000) detection.

Test [2] deals with T2, GP73 in human prostatic hyperplasia tissue sections (前列腺增生组织石蜡切片中的GP73) (human) (UniProt Q8NBJ4).
T2 sequence (looked up): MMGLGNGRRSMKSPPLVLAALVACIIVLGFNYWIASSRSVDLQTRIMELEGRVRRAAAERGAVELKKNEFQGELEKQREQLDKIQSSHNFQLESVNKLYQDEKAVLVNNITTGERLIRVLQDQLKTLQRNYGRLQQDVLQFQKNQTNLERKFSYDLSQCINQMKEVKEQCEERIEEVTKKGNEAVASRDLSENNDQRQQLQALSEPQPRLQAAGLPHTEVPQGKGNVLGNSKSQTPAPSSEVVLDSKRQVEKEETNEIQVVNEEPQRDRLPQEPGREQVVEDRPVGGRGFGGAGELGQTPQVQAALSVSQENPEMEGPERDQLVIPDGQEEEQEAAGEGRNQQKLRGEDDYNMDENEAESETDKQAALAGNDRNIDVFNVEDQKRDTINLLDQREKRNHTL
Briefly: immunohistochemistry on paraffin sections.

B1: 抗GP73单克隆抗体6A2 (anti-GP73 mAb) (antibody, part only; not given: light chain variable region, V domains shown, part only)
VH: DFNIKDTYMHWMKQRPEQGLEWIGRIDPANGNTKYDPKFQGKATITTDTSSNTAYLQLSSLTSEDTAVYYCAREDYGNLWYFDV
Consider B1, for which the 最低检测限 (lowest detection limit of the sandwich ELISA) in test [1] was 0.25 ng/mL. In test [2], this molecule returned a 效价 (titer in immunohistochemistry) (titer (1:x dilution)) of 1000.
